The results in this text go back to the DeepSol protein solubility set.

This series is described as follows: soluble on expression in E. coli; label from the status in PepcDB or PDB records.
Regarding “MAFDISAQDPFSILIAGVDSREDTHAGRSDTLIVLTVNPKEESIKMLSIPRDTRTEIVGRGTDDKINHAYAFGGAQMTIDTVENFLDIPIDHYVSINMDGFTQLVDALGGVSVENSFAFSQNGYQFEEGEIFLETGDEALAYARMRKQDSRGDFGRNDRQRQIVEAVIKQSAQFSSITKAGAILDAVGESVRTDLQLDGMWELQSNYRGAAKNIEQLEITGEGTRINNIYYLIIPQEEIARVQGELKSHLELSLEHHHHHH”, the “soluble on expression in E. coli” value is given as “soluble”. As for “MKASVRWVECPRDAWQGFSRFIPTEEKVAFLNELLEAGFAHLDLTSFVSPKWVPQMQDAEEVLKALPPPNGRTYLAIVANEKGLERALAAPNLTHVGYPFSLSETFQQRNTNRSIEASWPLVGAMVERTEGRLGLVVYLSMAFGNPYGDPWSVEAVLEALARLKEMGVREIALADTYGVAEPERIHEVLKAAVARFGPEGLGAHLHARPEGALAKVEAVLAAGVTWLEGALAGVGGCPFAGDELVGNLPTEVVLPHLEKRGLATGVDLSRLPLLAEEAARLKALYA”, the entry is “soluble”. As for “NGWVWKLGMNLTHYKNKVTELPLKDMPQSGVNKLQVGRSVYDFYMKEWAGVDPDNGNPLWYMDEKDANDNLTGKRVTTSDYASANYYYVNKSSLPKVYGGFNTSLSWKGFDLSAIFAYSIGGYIYNRDITMILHNGSLEGRDWSTEILKRWTPENRYTDVPALSTTSNNWNSASTRFLQNNSYMRLKNLTLSYDLPKQWISKLALSSVQVFVQGDNLFTIHRNQGLDPEQGITGITYYRYPAMRTISGGINLSF”, the entry is “not soluble”. Next, “MAHHHHHHMSIAKKRLAQERAEWRKDHPAGFSAKYSPMSDGKGLDIMKWICKIPGKKGGLWEGGEYPLTMEFTEDYPSKPPKCKFTTVLFHPNIYPSGTVCLSILNEDEDWKPSITIKQILLGIQDLLDNPNPNSPAQAEPFLLYQQDRDSYEKKVKKQAIEFRPKD”: “not soluble”.

Turning to “MDRFENMNAFVRVVETGSISAAADRMDIAKSVVSRRLKELEEHLGVELFHRTTRQMNLTDSGRAFYQQSVRILADVLEAEHATSQFHGRLKGHLKVAVPLSFGLMHLGAAISTFLQTHPDIEFDLDFNDRQVDLLAEGFDLAIRIANLPDSSLIARRLAPIQAVMCASPAYLERMGTPQAPEELIRHRCLVYNLVSHSDNWNVYGTTGELIKTRIIPYLKASNGEFLRDAAVDGLGIVLLPTFIVYREIQRGALIPILTGYHYAQLAAYAIYPQTRHLSQRVRAFVDFLSQRFEGMPYWDACLNQ”, the “soluble on expression in E. coli” value was “not soluble”. “MGKKELKRGLVVDREAQMIGVYLFEDGKTYRGIPRGKVLKKTKINAGDYVWGEVVDPNTFAIEEVEERKNLLIRPKVANVDRVIIVETLKMPEFNNYLLDNMLVVYEYFKVEPVIVFNKIDLLNEEEKKELERWIAFTGMRATTFSRLEHHHHHH”: the “soluble on expression in E. coli” value is “not soluble”. Next, “MSLAKQDELVFLPLGGVGEIGMNLALYGYGPPEHRQWIMVDCGVTFPGPDLPGVDLVLPDIRFLASERKNLKAIIITHAHEDHYGALADLWPGLNVPVYASGFTAGLLEAKRNFEKAKIGEVPVTPFKAGDTINVGPFSIEGVAVNHSIPEPMSLMIRTPVGNVIHTGDWKIDHEPSLGPLTDETRFRQLGDEGVLALMCDSTNALRDGVSPSEKDVSESLRKIIENAEGRVAITTFSSNVGRIRTVAEAAEAAGREVLLLGSSLKRVVDVAQDVGLMEGVKPFISEEEYGYIPRDKVVVILTGSQGEARAALAKLSRDEMRNVAFAAGDIVVFSSRAIPGNEKAIQDIKNGLVEQGVHIITDTEALVHVSGHPRRNELQRMYEWTRPKIVVPVHGEATHLTAHKELAEQSGIALVPRVRNGDILRLAPGEGHHHHHH”: “soluble”; “MGSDKIHHHHHHMNTSGDRLRILLRECHLTATDFAANRKITPQHVNNWFKRGVPMARIDEVAELLTVNARWLRSGDGPKHPNESANENTGDDKRMAIQQTRNVLRGDVEIQIYMEVESPHGVGKTVLSEAPGQKIRLPLQVLQTMGIDPKNCMCVAMVGNSMADKIQDGSILGVDRELTQVIDGEIYALEHGGILRVRYLYRLPNGGLRLRSHNDAEYPDEVFSGEDIAREKIRILGWIFWWSTLNSRRNAMLLL”: “not soluble”. Next, “GSSHHHHHHGSMLNMWKVRELVDKATNVVMNYSEIESKVREATNDDPWGPSGQLMGEIAKATFMYEQFPELMNMLWSRMLKDNKKNWRRVYKSLLLLAYLIRNGSERVVTSAREHIYDLRSLENYHFVDEHGKDQGINIRQKVKELVEFAQDDDRLREERKKAKKNKDKYVGVSSD”: “soluble”; “MSLGSTQLQLHGLLSNISSKEGTYAKLGGLYTQSLARLVAKCEDLFMGGQKKELHFNENNWSLFKLTCNKPCCDSGDAIYYCATCSEDPGSTYAVKICKAPEPKTVSYCSPSVPVHFNIQQDCGHFVASVPSSMLSSPDAPKDPVPALPTHPPAQEQDCVVVITREVPHQTASDFVRDSAASHQAEPEAYERRVCFLLLQLCNGLEHLKEHGIIHRDLCLENLLLVHCTLQAGPREKQLPRLIISNFLKAKQKPGGTPNLQQKKSQARLAPEIVSASQYRKFDEFQTGILIYELLHQPNPFEVRAQLRERDYRQEDLPPLPALSLYSPGLQQLAHLLLEADPIKRIRIGEAKRVLQCLLWGPRRELVQQPGTSEEALCGTLHNWIDMKRALMMMKFAEKAVDRREGHHHHHH”: “not soluble”. Next, “MGSSHHHHHHSSGLVPRGSHMAAPIRFFELNTGAKLPCVGLGTYAMVATAIEQAIKIGYRHIDCASIYGNEKEIGGVLKKLIGDGFVKREELFITSKLWSNDHLPEDVPKALEKTLQDLQIDYVDLYLIHWPASLKKESLMPTPEMLTKPDITSTWKAMEALYDSGKARAIGVSNFSSKKLTDLLNVARVTPAVNQVECHPVWQQQGLHELCKSKGVHLSGYSPLGSQSKGEVRLKVLQNPIVTEVAEKLGKTTAQVALRWGLQTGHSVLPKSSSGARLKENLDVFDWSIPEDLFTKFSNIPQEKFCRATEFAHETHGFYKTIEELWDGEI”: “soluble”; “AIAGSRQDPVPLSFVTLQEQRCVLSWFLGWNVAQKQRFLEDLISKAVPGKVSSLLDQLNTLQVNDRPPNIFECQLRLWTQWFDSWSEEERNAFLNCLEEKDPTFVAFFYDQVAGTAGRD”: “soluble”. With “MSLAEFIYTMRKVRKAHGDKVILDDVNLNFLPGAKIGVVGPNGAGKSSVLRIMAGLDTPNNGDAYLAPGASVGILQQEPHLDETKTVRENVEEGVPIKGKLNRYNEVAELMATDYSDELMEEMGRLQEELDAADAWDIDSQLEQAMDALRCPPPDEPVTHLSGGERRRVALCKLLLSKPDLLLLDEPTNHLDAESVLWLEQHLASYKGAILAVTHDRYFLDNVAEWILELDRGRAYPYEGNYSTYLEKKAERLEVQGKKDQKLQKRLKEELAWVRSGAKARQAKNKARLGRYEEMAAEAEKSRKLDFEEIQIPTPPRLGNVVVEVEHLDKGFEGRTLIKDLSFTLPRNGIVGVIGPNGVGKTTLFKTIVGLEQPDSGVVRVGDTVKLSYVDQNRAGIDPKKNVWEVVSDGLDYIEVGQNEIPSRAYVSAFGFKGPDQQKPAGVLSGGERNRLNLALTLKEGGNLILLDEPTNDLDVETLSSLEHALEQFPGCAVVISHDRWFLDRTCTHILAWEGDDDNEAKWFWFEGEGHHHHHH”, the “soluble on expression in E. coli” value is given as “soluble”. As for “MNLDDKALFLDAMEDVQPLKRHTDVHWQPTRNLKTPQRIDTLQLDNFLTTGFLDILPLNEPLEFRREGLQQGVIDKLRSGKYPQQASLNLLRQPVETCRKMLFRFILEAQKEGLRNVLIIHGKGREAKSHANIVRSYVARWLTEFEDVQAYCSALPHHGGGGACYVALRKTVQAKQDNWERHAKRSR”, the entry is “not soluble”. Next, “MGSDKIHHHHHHMSQDDHSRDSAGLTYVYPVVSRRAGGVSIGINLNPNNACNWRCIYCQVPDLKRGTAPVIDLVRLEQELRDFLHELVYGNFMQEKVPPETRVIKDIALSGNGEPTSAREFEQIIEIIGRVKADFPLPEELKLVLITNGSLINRMYVQKGLHLMAGLNGEVWFKLDSVTQTGRLRINNTRASLQRMRDNLQTAASLCPTWLQTCVFKLKGVHPDTHETDAYIGFIRTLLQEGTQIRGVLLYTLARPALQPEAPDLSKADPDWIKTFADKIRALGIPVRTAF”: “not soluble”; “MAHHHHHHMSEERVKILVLGPSRSGKSTIANFLAGLRETPTKGYYETQPLRILEVEIGLDNLKVGGRHVVGPKKAIVQLWDLGGSSKHQAGWQAVAANADGIIYVFNPEVRGAEKELVLWHKNFALDQDKLDERNNFKVRVPDKHSLVFSHHSSMPELAVGDNAIPSLPKQLRGVRAIETSLDYQSGNFKEAFDAMVEQIVVSRIVAEEDEILQKEREAGDAPRMVR”: “not soluble”. Next, “MAHHHHHHMGGPPRKREREGEALKPKSKEEQLPIKNECTLDRREGKQIVAEKWSEVVVDDNESQERSNESVSESQVYDTEEELLAAGEDLSGDALKDFLRKNFVDFIDEKVARVGDLDLMN”: “not soluble”; “MSSDLYANAVLYSEISQRNPELVSKMFNEATRKKLDAFLKDNEAPKLKDIVTDNVFKKRKRIASSSGNEPPVKKMAAKDSSDSDSSDDGAVKKNGVQKPVNVAAKKSATPVQKKAESSSSSDSDAPAKKLTPVKKPAQTPAQKKAASSSDSDSDDEPPKKAPAVTTKVAPKPMAKKQDTSDSDSDSEDSDDGKSKKANPVKVTPVANVLQKVVAKKAASSSSDSSDDEKKPAAKPTPAKPTPKPVVKKAESSSDSSDDEKKPVAKPAPAKATPKPAAKKADSSSDSSDDEAPAKKTPAKAAPKPVAKKAESSSDSSDDEKKPAAKPTPAKATPKPVAKKAESSSDSSDDEKKPVAKPAPAKATPKPVAKKAESSSDSSDDEKKPAAKPTPAKATPKPVAKKAESSSDSSDDEKKPVAKPTSAKATPKPAAKKADSSSDSSDDEAPAKKTPAKAAPKPASKKAESSSDSSDDEKPAAKSTPAKITPKPTAKKVASSSSDSSDDEKKPAAKPTPANATPKPVAKKAESSSDSSDDEKKPVAKPTSAKATPKPAAKKADLSSDFSDDEAPAKKTPAKAAPKPASKKAESSSDSSDDEKPAAKSTPAKTTPKPTAKKAASSSSDSSDDEKKPVAKPTSAKATPKPAAKKADSSSDSSDDEAPAKKTPVKPTPVKIVAKKVDSSSDSSDDEKKPTKATPVKVTPKSVTKKAAASSSDSSDDEKKPVVKQTPNVVPKKEKAASSSDDSSDDEKKPTAKPTPKATPKQSAKKADSSDDSSDDEAPAKKTPAKSTPAKTAVKKEASSSSDDSSDDEKTKKKSATTPAKSTPKTALKKAESSDSSDDDEDLPKPSKAVTPRPQRADSEESAETEESSSRTPALKAKPLATSTEKAVYENRKRKSSPFRRVQMTKDSVSEKFRNNQHDSHFDQWGQRANESLGKVVGKAFRHEKTKKKKGSYGGGPINQSINSIKFSDSDD”: “soluble”.
